Test [1] concerns the target T1, Claudin 6 (human) (human, UniProt P56747 1-220).
T1 construct: Expressed on transfected HEK-293T cells or naturally on PA-1 cells for flow cytometry; For the Octet KD values it was the intact protein embedded in virus-like particles (lipoparticles); also called hsCLDN6; CLDN6
T1 chain: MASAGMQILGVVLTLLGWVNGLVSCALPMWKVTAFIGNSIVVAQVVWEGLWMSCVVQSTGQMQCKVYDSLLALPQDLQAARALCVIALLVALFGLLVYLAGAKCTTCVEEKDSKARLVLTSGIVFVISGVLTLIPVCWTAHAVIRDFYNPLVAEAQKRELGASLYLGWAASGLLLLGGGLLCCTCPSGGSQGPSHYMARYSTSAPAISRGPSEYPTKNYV
Description: biosensor (Forte Octet), intact claudin in virus-like particles (lipoparticles). As for the experimental part: Affinity of various antibodies against CLDN6 as compared to CLDN9, CLDN3, and CLDN4 was measured using a biosensor. Biosensor affinity measurement of the various antibodies against the proteins was determined using a Forte Octet, which was used for biosensor measurements, using intact claudin proteins embedded in virus-like particles (lipoparticles). The KD for different antibodies is shown below.
For orientation: In BLI a coated tip is dipped into the sample, and binding shifts an interference pattern.

Test [2] concerns the target T1, Claudin 6 (human). The test can be described thus: flow cytometry, HEK-293T cells transiently transfected with human Claudin 6 (hsCLDN6); pUC = empty vector control. How it is done:
FIG. 1 illustrates the results of a binding assay showing that Claudin 6 MAbs bind to human Claudin 6. Human embryonic kidney 293T (HEK-293T) cells were transiently transfected with DNA for human Claudin 6 (hsCLDN6) or empty vector along with GFP (pUC) for 22 hours. Claudin 6 MAbs (IM136, IM171, IM172, and IM173) were added at serial dilutions (0.0-10 μg/mL) and incubated for 90 min with shaking. After a wash step, secondary antibody for detection (allophycocyanin-conjugated mouse anti-human IgG Fc; Southern Biotech) was added and incubated for 30-45 min. Cells were washed, and fluorescence was detected by high-throughput Intellicyt flow cytometry, with gating by graphing forward scatter against side scatter. Data were analyzed in GraphPad Prism software based on the geometric mean of fluorescence intensity for the cell population in each well.

The target in test [3] is T2, N38A.
T2 construct: Shotgun Mutagenesis mutant; also called Claudin 6 N38A
T2 chain: T1 chain with N38A
Description: Shotgun Mutagenesis epitope mapping; mean (range), % of wild-type Claudin 6.

Test [4] deals with T3, R158A.
T3 construct: Shotgun Mutagenesis mutant; also called Claudin 6 R158A
T3 chain: T1 chain with R158A
The description is as above.

Test [5] concerns the target T4, E154A.
T4 construct: Shotgun Mutagenesis mutant; also called Claudin 6 E154A
T4 chain: T1 chain with E154A
Described as above.

Test [6] has as its target T5, V45A.
T5 construct: Shotgun Mutagenesis mutant; also called Claudin 6 V45A
T5 chain: T1 chain with V45A
The description is as above.

Test [7] deals with T6, D146A.
T6 construct: Shotgun Mutagenesis mutant; also called Claudin 6 D146A
T6 chain: T1 chain with D146A
Described as above.

Test [8] deals with T7, A153S.
T7 construct: Shotgun Mutagenesis mutant; also called Claudin 6 A153S
T7 chain: T1 chain with A153S
Described as above.

In test [9] the target is T8, Q78A.
T8 construct: Shotgun Mutagenesis mutant; also called Claudin 6 Q78A
T8 chain: T1 chain with Q78A
Described as above.

Experimental findings from US20220127355A1 (INTEGRAL MOLECULAR, published 2022) are described below.

As usually defined, the Kd is a measure of binding affinity in units of concentration. Lower therefore signals higher affinity. What is called EC50 (read off the curve) is the concentration giving half of the maximal effect.

Changes are numbered by the printed parent chain.

B1: IM171 (antibody, V domains shown)
VH: AVTLDESGGGLQTPGGALSLVCKASGFDFSSYAMNWVRQAPGKGLEWVAGIGSTGSSTGYGPAVKGRATISRDNGQSTLRLQLNNLRAEDTAIYYCAKSVGNGNSWSGYIATSIDAWGHGTEVIVSS
VL: ALTQPSSVSANLGGTVKLTCSGGSSGYGWYQQKSPGSAPVTVIYSNDKRPSDIPSRFSGSLSGSTGTLTITGVQADDEAVYFCGSTDNSYVGIFGAGTTLTVL
notes: Detected with anti-human IgG Fc secondary; also called LM171
For the molecule B1, the dissociation constant Kd in [1] was 3 nM. Moreover, the “EC50 (read off the curve)” value in [2] was roughly 0.4 µg/mL. Further, the “Binding Reactivity (% WT)” value in [3] amounted to 22.4 % WT; in test [4], 1.3 % WT; in test [5], 4 % WT; in test [6] it was 88.4 % WT; in test [7], 57.6 % WT; in test [8], 24 % WT. The “Binding Reactivity (% WT)” value in test [9] came to 151 % WT.

B2: IM173 (antibody, V domains shown)
VH: AVTLDESGGGLQTPGGALSLVCKASGFTFSSYSMFWVRRAPGKGLEWVAGIDSGSTTFYGSAVKGRATISRDNGQSTVRLQLNNLRAEDTATYYCAKDAYGYCGWSGCSADSIDAWGHGTEVIVSS
VL: ALTQPSSVSANPGGTVEITCSGGNNYYGWYQQKSPGSAPVTVIYYNDKRPSDIPSRFSGSKSGSTGTLTITGVQADDEAVYFCGGWDSSGGIFGAGTTLTVL
notes: Detected with anti-human IgG Fc secondary
In turn, B2 yielded a Kd in test [1] of 0.32 nM. In addition, in [2], the “EC50 (read off the curve)” value was roughly 0.4 µg/mL. For the same molecule, the “Binding Reactivity (% WT)” value worked out at 86 % WT in test [3]; 3.6 % WT in test [4]; 134 % WT in test [5]; 76.1 % WT in test [6]; 119 % WT in [7]; 113 % WT in test [8]. Further, the “Binding Reactivity (% WT)” value in test [9] came to 144 % WT.
